From patent US20240226163A1 come the findings set out here.

Holding throughout (assay): flow cytometry, peptide-pulsed T2 cells, 100 nM antibody
Assay [1] has as its target HLA-A*02:01 presenting CCDC36 417-426 peptide (…) (human).
Assay [2] concerns the target HLA-A*02:01 presenting CELSR3 1594-1603 peptide (…) (human).
Assay [3] addresses HLA-A*02:01 presenting FAT4 4053-4062 peptide (…) (human).
Assay [4] deals with HLA-A*02:01 presenting LPIN2 823-832 peptide (…) (human).
Assay [5] deals with HLA-A*02:01 presenting MAGE-A10 254-263 peptide (…) (human).
The target in assay [6] is HLA-A*02:01 presenting MAGE-A4 230-239 peptide (…) (human).
For assay [7], the target named is HLA-A*02:01 presenting MAGE-A8 232-241 peptide (…) (human).
Assay [8] concerns the target HLA-A*02:01 presenting PAPPA2 307-316 peptide (…) (human).
Assay [9] deals with HLA-A*02:01 presenting SCL25A19 111-120 peptide (…) (human).
The target of assay [10] is HLA-A*02:01 presenting THBS3 116-125 peptide (…) (human).

As for “mAb1097 (mIgG2a Isotype Control) (antibody)”, the Antibody Binding Ratio (pulsed cell MFI/Unpulsed cell MFI) stood at 1.1 in assay [1]; 0.9 in assay [2]; 1.1 in assay [3]; 0.9 in [4]; 1.3 in [5]; 4.3 in assay [6]. For the same substance, the Antibody Binding Ratio (pulsed cell MFI/Unpulsed cell MFI) is 3.3 in assay [7], 0.9 in [8], 0.9 in assay [9] and 1 in [10].
